In the RNAGym collection of RNA variant scans (doi:10.7554/elife.80360):

B1: HDV Ribozyme (parent)
chain: GGCCGGCAUGGUCCCAGCCUCCUCGCUGGCGCCGGCUGGGCAACAUUCCGAGGGGACCGUCCCCUCGGUAAUGGCGAAUGGGACCCA

Variants of: B1
Test: self-cleavage, relative activity (ratio to wild type); higher = more cleavage; co-transcriptional

Variant	self-cleavage
GGCCGGCAUGGUCCCAGCCUCCUCGCUGGCGCCGGCUGGGCAACAUUCCGAGGGGACCGUCCCCUCGGUAAUUGCGAAUGCGACCCA	0.115
GGCCGGCAUGGUCCCAGCCUCCUCGCUGGCGCCGGCUGGGCAACAUUCCGAGGGGACCGUCCCCUCGGGAAUAGCGAAUGGGACCCA	0.746
GGCCGGCAGGGUCCCAGCCUCCUCGCUGGCGCCGGCUGGGCAACUUUCCGAGGGGACCGUCCCCUCGGUAAUGGCGAAUGGGACCCA	0.692
GGCCGGAAUGGUCCCAGCCUCCUCGCUGGCGCCGGCUGGGCAACAUUCCGAGGGGACCGUCCCCUCGGUAGUGGCGAAUGGGACCCA	0.584
GGCCGGCAUGGUCCCAGCCUCCUCGCUGGCGCCGGCUGGGCAACAUUCCGAGGGGACCGUCCCCUAGGUAAUGGCGAAUGGGAACCA	0.831
GGCCGGCAUGGUCCCAGCCUCCUCGCUGGCGCCGGAUGGGCAACAAUCCGAGGGGACCGUCCCCUCGGUAAUGGCGAAUGGGACCCA	0.244
GGCCGGCAUCGUCCCAGCCUCCUCGCUGGCGCCGGCUGGGCAACAUUCCGAGGGGACCGUCCCCUCGGUAACGGCGAAUGGGACCCA	0.289
GGCCGGCAUGGUCCCAGCCUCCUCGCUGGCGCCGGCUGAGCAACAUUCCGAGGGGACCGUCCCCUCGGUAAUGGCGAAUGGCACCCA	0.128
GGCCGGCAUGGUCCCAGCCUCCUCGCUGGCGCCGGCUGGGCAACAUUCCGUGGGGACCGUCCCCCCGGUAAUGGCGAAUGGGACCCA	1.04
GGCCGGCAUGGUCCCAGCCUCCUCGCUGGAGCCGGCUGGGCACCAUUCCGAGGGGACCGUCCCCUCGGUAAUGGCGAAUGGGACCCA	0.0326
GGCCGGCAUGGUCCCAGCCUCCUCGCUGGAUCCGGCUGGGCAACAUUCCGAGGGGACCGUCCCCUCGGUAAUGGCGAAUGGGACCCA	0.0733
GGCCGGCAUGGUCCCAGCUGCCUCGCUGGCGCCGGCUGGGCAACAUUCCGAGGGGACCGUCCCCUCGGUAAUGGCGAAUGGGACCCA	0.0594
GGCCGGCAUGGUCCCAGCCUCCUCGCUGGCGCCGCCUGGGCAACAUUCCGAGGGGACCGUCCCCUCGGUCAUGGCGAAUGGGACCCA	0.158
GUCCGGCAUGGUCCCAGCCUCCUCGCUGGCGCCGGCUGGGCAACAUUCUGAGGGGACCGUCCCCUCGGUAAUGGCGAAUGGGACCCA	0.0821
GGCCGGCAUGGUCCCAGCCUCCUCGCUGGCGCCGGCUGGGCAACAUUCCGAGGGGACCGUCCCCUCGGUAAUGGCGAAUCGGACCCA	0.187
GGCCGGCAUGGUCCCACCCUCCUCGCUGGCGCCAGCUGGGCAACAUUCCGAGGGGACCGUCCCCUCGGUAAUGGCGAAUGGGACCCA	0.102

Variant	self-cleavage
GGCCGGCAUGGUCCCAGCCUCAUCGCUGGCGCCGGCUCGGCAACAUUCCGAGGGGACCGUCCCCUCGGUAAUGGCGAAUGGGACCCA	0.0346
GGCCGGCAUGGUCCCAGCCUCCUCGCUGGUGCCGGCUGGGCAACAUUCCGAGGAGACCGUCCCCUCGGUAAUGGCGAAUGGGACCCA	0.571
GGCCGGCAUGGUCCCAGCCUCCUCGCUAGCGCCGGCUGGGCAACAUUCCGAGGGGACCGUCCCCUCGGUAAUUGCGAAUGGGACCCA	0.0326
GGCCGGCAUGGUCCCAGCCUCCUCGCUGGCGCCGGCUGGGCAACAUUCCGAGGGGACGGUCCCCUCGGUAAUGGCGAAUGGCACCCA	0.302
GGCCGGCAUGGUCCCAGCCUCCUCGCUGGCGCCGGCUGGGCAACAUUCUCAGGGGACCGUCCCCUCGGUAAUGGCGAAUGGGACCCA	0.991
GGCCGGCAUGGUCCCAGCCUCCUCGAUGGCGCCGGCUCGGCAACAUUCCGAGGGGACCGUCCCCUCGGUAAUGGCGAAUGGGACCCA	0.122
GGCCGGCAUGGUCCCAGCCUCCUCGCUGGCGCCGACUGGGCAACAUUCCGACGGGACCGUCCCCUCGGUAAUGGCGAAUGGGACCCA	0.409
GGCCGGGAUGGUCCCAGCCUCCUCGCUGGCGCCGGCUGGGCAACAUUCGGAGGGGACCGUCCCCUCGGUAAUGGCGAAUGGGACCCA	0.123
GGCCGGCAUGGUCCCAGCCUCCUCGCUGGCGCCGCCUGGGCAACAUUCCGAGGGGACCGUCCCCUCGGUAAUGGCCAAUGGGACCCA	0.305
GGCCGGCAUGGUCCCAGCCUGCUCGCUGGCGCCGGCUGGGCGACAUUCCGAGGGGACCGUCCCCUCGGUAAUGGCGAAUGGGACCCA	0.0573
GGCCGGCAUGGUCCCAGCCUCCUCGCUGGCGCCGGCUGGGCAACAUUCCGAGGGGACCGUCCCCUCGGUAACGGAGAAUGGGACCCA	0.256
GGCCGGCAUGGUCCCAGCCUCCUCGCUGGCGCCGGCUGGGCAACAUUCCGAGGGGACCGUCCCCUCGGUAAUGGCGAAGGGGACCCC	0.656
GGCCGGCAUGGUCCCAGCCUACUCGCUGGCGCCGGCUGGGCAACAUUCCGAGGGGACCGUCCCCUCGUUAAUGGCGAAUGGGACCCA	0.0432
GUCCGGCAUGGUCCCAGCCUCCUCACUGGCGCCGGCUGGGCAACAUUCCGAGGGGACCGUCCCCUCGGUAAUGGCGAAUGGGACCCA	0.0391
GGCCGGCAAGGUCCCAGCCUCCUCGCUGGCGUCGGCUGGGCAACAUUCCGAGGGGACCGUCCCCUCGGUAAUGGCGAAUGGGACCCA	0.911
GGCCGGCAUGGUCCCAGCCUCUUCGCUGGCGCCGGCUGGGCAACAUUCCGAGGGGACCGUCGCCUCGGUAAUGGCGAAUGGGACCCA	0.431
